The values below come from patent US20230045712A1 (AstraZeneca / MedImmune, published 2023).

The target in this test is T1, human endothelial lipase (EL) (human, UniProt Q9Y5X9 21-500, limits assumed).
T1 construct: The assay used endogenous EL in human plasma and a bought recombinant EL standard (Origene Technologies); also called human EL
T1 sequence: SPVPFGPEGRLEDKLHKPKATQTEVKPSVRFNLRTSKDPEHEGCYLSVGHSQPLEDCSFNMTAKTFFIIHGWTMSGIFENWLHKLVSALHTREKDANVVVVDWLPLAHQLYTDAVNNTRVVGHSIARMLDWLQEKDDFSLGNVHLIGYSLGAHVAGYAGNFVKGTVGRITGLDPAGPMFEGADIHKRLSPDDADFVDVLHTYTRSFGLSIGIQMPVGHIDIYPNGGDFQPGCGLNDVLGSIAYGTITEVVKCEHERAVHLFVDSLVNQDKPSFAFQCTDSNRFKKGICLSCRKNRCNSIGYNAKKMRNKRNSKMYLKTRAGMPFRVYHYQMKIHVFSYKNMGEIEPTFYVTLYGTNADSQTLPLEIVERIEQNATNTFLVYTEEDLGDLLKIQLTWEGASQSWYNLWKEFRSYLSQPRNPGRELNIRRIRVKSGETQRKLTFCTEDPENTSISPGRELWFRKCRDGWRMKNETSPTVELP
Put plainly: MSD immunoassay of human plasma: plate coated with MEDI5884 captures EL, which is detected with a biotinylated EL detection antibody and streptavidin sulfo-TAG. Plasma came from subjects with stable coronary heart disease given three monthly subcutaneous doses of MEDI5884 or placebo. The loss of capturable EL after dosing is what the filing calls target engagement. The protocol:
In particular, the amount of hEL bound by MEDI5884 in human plasma was measured using the Meso Scale Diagnostics (MSD) based immunoassay platform. Briefly, wells on a 96-well plate were coated with MEDI5884 and incubated overnight at 4° C. The next day, wells were washed with PBS containing 0.05% Tween20 wash buffer and blocked with I-Block Buffer (Applied Biosystems) for one hour at room temperature. Plates were washed. Then recombinant EL protein standard (Origene Technologies) and human plasma samples were added to corresponding wells and incubated for one hour at room temperature. After washing, a biotinylated EL detection antibody (Origene Technologies) was added to corresponding wells and incubated for one hour at room temperature. Plates were washed, then a streptavidin, sulfo-TAG antibody (MSD) was added to corresponding wells and incubated for one hour at room temperature. After washing, wells were incubated with Read buffer (MSD). Plates were read using the MESO Sector S 600 plate reader, and data was analyzed using the MSD Discovery Workbench software analysis program.

B1: MEDI5884 (antibody, human IgG4 S228P, kappa, V domains shown)
VH: QVQLVQSGSELKKPGASVKVSCKASGYTFTNYALNWVRQAPGQGLEWMGWINTYSGVGTYAGEFKGRFVFSLDTSVSTAYLQISSLKAEDTAVYYCARRGFYGRRFFDVWGKGTTVTVSS
VL: DIQLTQSPSSLSASVGDRVTITCKASQSVDYDVDSYMHWYQQKPGKAPKLLIYAASNLASGVPSRFSGSGSGTDFTFTISSLQPEDIATYYCQQTIEDPPTFGGGTKVEIKR
notes: Humanized anti-EL antibody, human IgG4P heavy chain and kappa light chain; It was coated on the plate as the capture reagent in the target engagement immunoassay; also called S6F1-4P
With B1, the binding result is reported as “binds”.
